US20170355774A1 (Regeneron, published 2017)

Experiments:
[1] = target: T1, human GITR (amino acids M1-V241, NCBI Accession #NP_004186.1) expressed on cells (human, UniProt Q9Y5U5 26-241); assay: cell-based or functional assay
T1 sequence: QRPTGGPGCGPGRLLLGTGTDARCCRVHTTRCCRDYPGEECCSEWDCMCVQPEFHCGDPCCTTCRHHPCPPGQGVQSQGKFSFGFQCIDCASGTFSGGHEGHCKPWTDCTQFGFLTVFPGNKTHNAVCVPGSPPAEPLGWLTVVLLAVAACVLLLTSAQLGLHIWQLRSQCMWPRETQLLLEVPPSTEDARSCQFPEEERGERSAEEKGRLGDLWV

[2] = target: T1, human GITR (amino acids M1-V241, NCBI …); assay: ECL cell binding, hGITR/HEK293-D9
Experimental: Nonspecific binding sites were blocked with 2% BSA (w/v)+PBS for 1 h at room temperature (RT). Next, serial dilutions of anti-GITR antibodies, ranging from 1.7 pM to 100 nM, were added to cells for 1 h at RT. Plates were then washed to remove unbound antibodies (AquaMax2000 plate washer, MSD Analytical Technologies) and plate-bound antibodies were detected with a SULFO-TAG™ conjugated anti-human kappa light chain IgG antibody (Jackson Immunoresearch) for 1 h at RT.
Following washes, luminescent signals were recorded with a SECTOR Imager 6000 (MSD) instrument. Direct binding signals (relative light units, RLU) were analyzed as a function of the antibody concentration and data were fitted with a sigmoidal (four-parameter logistic) dose-response model using GraphPad Prism™ software. […] The signal detected with 100 nM antibody binding to the hGITR expressing cells versus parental cells was recorded as an indication of intensity and specificity of GITR binding.

[3] = target: T1, human GITR (amino acids M1-V241, NCBI …); assay: cell-based or functional assay; remark: listed apart in the source
hGITR.mmh = target: T2, hGITR.mmh (human); assay: SPR 37C, mAb capture
T2 construct: soluble monomeric construct; also called human (h) GITR.mmh; monomeric human GITR
T2 chain: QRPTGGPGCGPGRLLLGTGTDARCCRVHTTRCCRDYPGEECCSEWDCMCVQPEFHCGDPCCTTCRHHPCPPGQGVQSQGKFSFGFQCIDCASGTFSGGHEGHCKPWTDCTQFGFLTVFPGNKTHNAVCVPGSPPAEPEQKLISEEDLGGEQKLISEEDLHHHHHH
Experimental: (§1) (Table 3). […] GITR proteins were injected over the sensor surface at a flow rate of 30 μL/minute. All Biacore binding studies were performed in a buffer composed of 0.01M HEPES pH 7.4, 0.15M NaCl, 3 mM EDTA, 0.05% v/v Surfactant P20 (HBS-ET running buffer). Antibody-reagent association was monitored for 4 minutes while dissociation in HBS-ET running buffer (10 mM HEPES, 150 mM NaCl, 3 mM EDTA, 0.05% (v/v) Surfactant P20, pH 7.4) was monitored for 10 minutes. Kinetic association (kₐ) and dissociation (kd) rate constants were determined by fitting the real-time sensorgrams to a 1:1 binding model using Scrubber 2.0c curve fitting software. Binding dissociation equilibrium constants (KD) and dissociative half-lives (t ½) were calculated from the kinetic rate constants as: KD [M]=kd/kₐ; and t_{1/2}(min)=(ln 2/(60*kd). Results are summarized in Table 3.

hGITR.mFc = target: T3, hGITR.mFc (human); assay: SPR 37C, mAb capture
T3 construct: soluble dimeric construct with mouse Fc; also called dimeric human GITR
T3 chain: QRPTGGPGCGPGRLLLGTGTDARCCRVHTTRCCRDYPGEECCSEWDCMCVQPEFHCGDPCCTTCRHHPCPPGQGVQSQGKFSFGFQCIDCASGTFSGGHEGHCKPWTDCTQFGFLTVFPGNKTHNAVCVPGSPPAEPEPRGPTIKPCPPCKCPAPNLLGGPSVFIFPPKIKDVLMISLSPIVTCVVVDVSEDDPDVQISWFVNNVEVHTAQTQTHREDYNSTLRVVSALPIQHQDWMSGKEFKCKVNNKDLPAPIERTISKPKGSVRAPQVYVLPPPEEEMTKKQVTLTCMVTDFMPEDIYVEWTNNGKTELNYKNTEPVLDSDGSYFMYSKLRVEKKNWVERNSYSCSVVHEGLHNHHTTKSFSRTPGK
Experimental: as §1

mfGITR.mmh = target: T4, mfGITR.mmh (Macaca fasicularis); assay: SPR 37C, mAb capture
T4 construct: soluble monomeric construct; also called Macaca fasicularis (mf) GITR.mmh; cynomolgus GITR protein
T4 chain: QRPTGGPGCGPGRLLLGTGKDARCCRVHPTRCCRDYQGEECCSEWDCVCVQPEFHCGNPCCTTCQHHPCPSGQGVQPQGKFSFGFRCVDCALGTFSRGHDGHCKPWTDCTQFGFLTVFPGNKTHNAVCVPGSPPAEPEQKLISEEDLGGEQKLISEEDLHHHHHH
Experimental: as §1

[4] = target: T1, human GITR (amino acids M1-V241, NCBI …); assay: cell-based or functional assay; remark: listed apart in the source
[5] = target: T1, human GITR (amino acids M1-V241, NCBI …); assay: cell-based or functional assay; remark: listed apart in the source

Binder | fold activation, T-cell proliferation, plate-bound Ab 10.6 nM, donor 1 [1] | fold activation, T-cell proliferation, plate-bound Ab 10.6 nM, donor 2 [1] | fold activation, T-cell proliferation, plate-bound Ab 10.6 nM, donor 3 [1] | fold activation, T-cell proliferation, plate-bound Ab 10.6 nM, donor 4 [1] | fold activation, T-cell proliferation, plate-bound Ab 10.6 nM, donor 5 [1] | fold activation, T-cell proliferation, plate-bound Ab 10.6 nM, donor 6 [1] | fold activation, T-cell proliferation, plate-bound Ab 10.6 nM, donor 7 [1] | fold activation, T-cell proliferation, plate-bound Ab 10.6 nM, donor 8 [1] | fold activation, T-cell proliferation, plate-bound Ab 10.6 nM, mean [1] | Average Signal (RLU) at 100 nM [2] | EC50 [2] | fold activation, T-cell proliferation, 22 nM, non-anchored, donor 1 [3] | fold activation, T-cell proliferation, 22 nM, non-anchored, donor 2 [3] | fold activation, T-cell proliferation, 22 nM, non-anchored, donor 3 [3] | fold activation, T-cell proliferation, 22 nM, non-anchored, donor 4 [3] | fold activation, T-cell proliferation, 22 nM, non-anchored, mean [3] | Kd (hGITR.mmh) | koff (hGITR.mmh) | kon (hGITR.mmh) | t½ (hGITR.mmh) | also measured
H4H14508P (antibody, human IgG4, V domains shown, human IgG4 (H4H)) VH: QVQLVESGGGVVQPGRSLRLSCAASGLTVSSYVMHWVRQAPGKGLEWVAIIWYDGSNKYYGDSVKGRFTISRDNSKKTLYLQMNSLRAEDTAVYYCARGRPLSSSSSDYYGLDVWGQGTTVTVSS VL: AIQMTQSPSSLSASVGDRVTIICRASQGIRNDLGWYQQKPGKAPNLLIYAASSLQSGVPSRFSGSGSGTDFTLTISSLQPEDFATYYCLQDYNYPWTFGQGTKVEIK | 10 fold | 4 fold | 4 fold | 7 fold | 4 fold | 11 fold | 3 fold | 2 fold | 5 fold | 6870 RLU | 0.45 nM | 0.7 fold | 0.9 fold | 0.9 fold | 1.4 fold | 1 fold | 36.6 nM | 0.00935 s⁻¹ | 255000 M⁻¹ s⁻¹ | 1.2 min | Kd (hGITR.mFc): 0.597 nM; koff (hGITR.mFc): 0.000719 s⁻¹; kon (hGITR.mFc): 1.21e+06 M⁻¹ s⁻¹; t½ (hGITR.mFc): 16.1 min; Kd (mfGITR.mmh): 39.3 nM; koff (mfGITR.mmh): 0.00507 s⁻¹; kon (mfGITR.mmh): 129000 M⁻¹ s⁻¹; t½ (mfGITR.mmh): 2.3 min; % Activation, NF-kB-Luc, non-anchored [4]: 30%; % Blocking, NF-kB-Luc, non-anchored [4]: 40%; EC50, hGITR activation, NF-kB-Luc, non-anchored [4]: 1.2 nM; IC50, blocking of hGITRL stimulation, NF-kB-Luc, non-anchored [4]: 0.9 nM; fold activation, T-cell proliferation, 33 nM, FcgR anchored, donor 1 [5]: 1 fold; fold activation, T-cell proliferation, 33 nM, FcgR anchored, donor 2 [5]: 0.7 fold; fold activation, T-cell proliferation, 33 nM, FcgR anchored, donor 3 [5]: 1.1 fold; fold activation, T-cell proliferation, 33 nM, FcgR anchored, donor 4 [5]: 1.8 fold; fold activation, T-cell proliferation, 33 nM, FcgR anchored, donor 5 [5]: 1.3 fold; fold activation, T-cell proliferation, 33 nM, FcgR anchored, mean [5]: 1.2 fold
H4H14525P (antibody, human IgG4, V domains shown, human IgG4 (H4H)) VH: QVQLVESGGGVVQPGRSLRLSCAASGFTFSSYGMHWVRQAPGKGLEWVAVIWYVGSNKYYGESVKGRFTISRDNSKNTLYLQMNSLRDEDTAIYYCARGGQLGSFYYYGMDVWGQGTTVTVSS VL: DIQMTQSPSSLSASVGDRVTITCRASQGIRNDLGWYQQKPGKAPKRLIYDVSSLQSGVPSRFSGSGSGTEFTLTISSLQPEDLATYYCLQHNSYPWTFGQGTKVEIK | 6 fold | 1 fold | 1 fold | 2 fold | 1 fold | 3 fold | 2 fold | 1 fold | 2 fold | 8840 RLU | 0.6 nM | 0.7 fold | 1 fold | 0.9 fold | 1 fold | 0.9 fold | 52.4 nM | 0.0166 s⁻¹ | 317000 M⁻¹ s⁻¹ | 0.7 min | Kd (hGITR.mFc): 0.427 nM; koff (hGITR.mFc): 0.000338 s⁻¹; kon (hGITR.mFc): 791000 M⁻¹ s⁻¹; t½ (hGITR.mFc): 34.2 min; Kd (mfGITR.mmh): 155 nM; koff (mfGITR.mmh): 0.0205 s⁻¹; kon (mfGITR.mmh): 133000 M⁻¹ s⁻¹; t½ (mfGITR.mmh): 0.6 min; % Activation, NF-kB-Luc, non-anchored [4]: 20%; % Blocking, NF-kB-Luc, non-anchored [4]: 70%; EC50, hGITR activation, NF-kB-Luc, non-anchored [4]: 1.1 nM; IC50, blocking of hGITRL stimulation, NF-kB-Luc, non-anchored [4]: 1.4 nM; fold activation, T-cell proliferation, 33 nM, FcgR anchored, donor 1 [5]: 1.2 fold; fold activation, T-cell proliferation, 33 nM, FcgR anchored, donor 2 [5]: 0.8 fold; fold activation, T-cell proliferation, 33 nM, FcgR anchored, donor 3 [5]: 1 fold; fold activation, T-cell proliferation, 33 nM, FcgR anchored, donor 4 [5]: 1.5 fold; fold activation, T-cell proliferation, 33 nM, FcgR anchored, donor 5 [5]: 1.5 fold; fold activation, T-cell proliferation, 33 nM, FcgR anchored, mean [5]: 1.2 fold
H4H14469P (antibody, human IgG4, V domains shown, human IgG4 (H4H)) VH: QVQLVESGGGVVQPGGSLRLSCAVSGFTFSDYGMHWVRQVPGAGLEWVAVIYYEGSNKYYADSVKGRFTISRDNSKNTLYLQMNSLRVEDTSMYFCARGPLLGGNFYSYLMDVWGQGTTVTVSS VL: AIQMTQSPSSLSASVGDRVTITCRASQGIRNGLGWYQQKPGKAPKLLIYTASSLQSGVPSRFSGSGSGTDFTLTISSLQPEDFATYYCLQDYNYPFSFGPGTKVDIK | 3 fold | 12 fold | 12 fold | 15 fold | 12 fold | 17 fold | 11 fold | 11 fold | 12 fold | 5230 RLU | 0.23 nM | 0.9 fold | 0.8 fold | 1 fold | 0.9 fold | 0.9 fold | 43 nM | 0.0122 s⁻¹ | 284000 M⁻¹ s⁻¹ | 0.9 min | Kd (hGITR.mFc): 0.335 nM; koff (hGITR.mFc): 0.000401 s⁻¹; kon (hGITR.mFc): 1.2e+06 M⁻¹ s⁻¹; t½ (hGITR.mFc): 28.8 min; Kd (mfGITR.mmh): 41.1 nM; koff (mfGITR.mmh): 0.00243 s⁻¹; kon (mfGITR.mmh): 59100 M⁻¹ s⁻¹; t½ (mfGITR.mmh): 4.7 min; % Activation, NF-kB-Luc, non-anchored [4]: 50%; % Blocking, NF-kB-Luc, non-anchored [4]: 90%; EC50, hGITR activation, NF-kB-Luc, non-anchored [4]: 2.3 nM; IC50, blocking of hGITRL stimulation, NF-kB-Luc, non-anchored [4]: 0.7 nM; fold activation, T-cell proliferation, 33 nM, FcgR anchored, donor 1 [5]: 0.7 fold; fold activation, T-cell proliferation, 33 nM, FcgR anchored, donor 2 [5]: 1 fold; fold activation, T-cell proliferation, 33 nM, FcgR anchored, donor 3 [5]: 0.9 fold; fold activation, T-cell proliferation, 33 nM, FcgR anchored, donor 4 [5]: 1.5 fold; fold activation, T-cell proliferation, 33 nM, FcgR anchored, donor 5 [5]: 1.5 fold; fold activation, T-cell proliferation, 33 nM, FcgR anchored, mean [5]: 1.1 fold
